Positions of bridges follow the written chain, without caps; N, C: chain ends. No end group written: not given here. Where only a bound is given, the exact number is not on record here.

To fix the notation:
T1: recombinant human Factor VIIa (human, UniProt P08709 61-212; P08709 213-466)
T1 construct: Immobilized directly on microtiter plates at 2 ug/ml; also called FVIIa
T1 sequence (looked up) 1: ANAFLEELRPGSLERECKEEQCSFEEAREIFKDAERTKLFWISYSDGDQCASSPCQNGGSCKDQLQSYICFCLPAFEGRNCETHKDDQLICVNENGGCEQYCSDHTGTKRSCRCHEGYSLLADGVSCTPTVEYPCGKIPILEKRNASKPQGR
T1 sequence (looked up) 2: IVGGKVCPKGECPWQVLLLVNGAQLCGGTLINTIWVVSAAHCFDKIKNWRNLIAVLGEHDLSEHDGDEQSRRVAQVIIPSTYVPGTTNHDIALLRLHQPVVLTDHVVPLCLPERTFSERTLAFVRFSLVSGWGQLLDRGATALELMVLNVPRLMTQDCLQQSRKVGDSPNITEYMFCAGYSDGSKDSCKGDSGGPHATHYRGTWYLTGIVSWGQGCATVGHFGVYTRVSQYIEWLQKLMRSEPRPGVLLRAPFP

T2: recombinant human Factor VIIa (human), P08709
T2 chain 1: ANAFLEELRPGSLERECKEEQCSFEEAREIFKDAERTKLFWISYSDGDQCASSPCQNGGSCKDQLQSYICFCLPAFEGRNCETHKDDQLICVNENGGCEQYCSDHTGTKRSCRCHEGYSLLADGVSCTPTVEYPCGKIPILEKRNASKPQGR
T2 chain 2: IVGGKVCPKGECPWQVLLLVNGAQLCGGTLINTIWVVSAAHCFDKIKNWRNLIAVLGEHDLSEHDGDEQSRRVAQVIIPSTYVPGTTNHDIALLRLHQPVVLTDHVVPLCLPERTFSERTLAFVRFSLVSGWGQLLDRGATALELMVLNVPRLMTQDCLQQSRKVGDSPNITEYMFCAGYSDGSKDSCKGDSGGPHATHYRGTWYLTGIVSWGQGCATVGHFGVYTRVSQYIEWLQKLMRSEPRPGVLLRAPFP

B1: peptide TF151 (peptide)
peptide: ALCDNPRIDRWYCQFVEG
modifications: disulfide 3-13 (inferred)
notes: Chemically synthesized, with the disulfide oxidized
B2: TF58 (peptide)
chain: EGTLCDDPRIDRWYCMFSGV
B3: TF111 (peptide)
chain: ALCDDPRVERWYCQFVEG
B4: TF144 (peptide)
chain: ALCDDPRVDRWFCQFVEG
B5: TF119 (peptide)
chain: ALADDPRVDRWYAQFVEG
B6: TF156 (peptide)
chain: CDDPRVDRWYCQFVEG
B7: TF110 (peptide)
chain: ALCDDPRVARWYCQFVEG
B8: TF162 (peptide)
chain: ALCDDPRVSRWYCQFVEG
B9: TF90 (peptide)
chain: ALCDDPRVDRWYCQF
B10: TF113 (peptide)
chain: ALCDDPRVDPWYCQFVEG
B11: TF191 (peptide)
chain: ALCDDPRVDRWYCQQVEG
B12: TF106 (peptide)
chain: ALCDNPRVDRWYCQFVEG
B13: TF112 (peptide)
chain: ALCDDPRVDAWYCQFVEG
B14: TF145 (peptide)
chain: ALCDDPRVDRWACQFVEG
B15: TF77 (peptide)
chain: LCDDPRVDRWYCQFVEG
B16: TF115 (peptide)
chain: ALCDDPRVDRWYCQAVEG
B17: TF89 (peptide)
chain: ALCDDPRVDRWYCQFV
B18: TF63 (peptide)
chain: LCDDPRIDRWYCQF
B19: TF131 (peptide)
chain: ALCDDPRVDRFYCQFVEG
B20: TF179 (peptide)
chain: ALCDDPRVDRWYCAFVEG
B21: TF128 (peptide)
chain: ALCDDPRLDRWYCQFVEG
B22: TF107 (peptide)
chain: ALCADPRVDRWYCQFVEG
B23: TF317 (peptide)
chain: AVCDDPRVDRWYCQFVEG
B24: TF109 (peptide)
chain: ALCDDPAVDRWYCQFVEG
B25: TF96 (peptide)
chain: ALCDDPEVDRWYCQFVEG
B26: TF114 (peptide)
chain: ALCDDPRVDRAYCQFVEG
B27: TF95 (peptide)
chain: ALCDRPRVDRWYCQFVEG
B28: TF75 (peptide)
chain: VGALCDDPRVDRWYCQFVE
B29: TF129 (peptide)
chain: ALCDDPRADRWYCQFVEG
B30: TF121 (peptide)
chain: ALCDDPRIDRWYCQFVEG
B31: TF146 (peptide)
chain: ALCDDPRVDRWYCQYVEG
B32: TF318 (peptide)
chain: ATCDDPRVDRWYCQFVEG
B33: TF130 (peptide)
chain: ALCDDPRVDKWYCQFVEG
B34: TF120 (peptide)
chain: ALCDEPRVDRWYCQFVEG
B35: TF74 (peptide)
chain: VGALCDDPRVDRWYCQFVEG
B36: TF189 (peptide)
chain: ALCDDPRVDRWYCQLVEG
B37: TF108 (peptide)
chain: ALCDAPRVDRWYCQFVEG
B38: TF127 (peptide)
chain: ALCRDPRVDRWYCQFVEG
B39: TF180 (peptide)
chain: ALCDDPRVDRWYC
B40: TF132 (peptide)
chain: ALCDDPRVDRWYCYFVEG
B41: TF61 (peptide)
chain: LCDDPRIDRWYCMF
B42: TF152 (peptide)
chain: ALCDDPRVDRHYCQFVEG
B43: TF161 (peptide)
chain: ALCDDPRVQRWYCQFVEG
B44: TF155 (peptide)
chain: AACDDPRVDRWYCQFVEG
B45: TF178 (peptide)
chain: ALCDDARVDRWYCQFVEG
B46: TF97 (peptide)
chain: ALCDDPRVNRWYCQFVEG
B47: TF319 (peptide)
chain: AMCDDPRVDRWYCQFVEG
B48: TF320 (peptide)
chain: AKCDDPRVDRWYCQFVEG
B49: TF98 (peptide)
chain: ALCDDPRVDQWYCQFVEG

The target of the first experiment is T1, recombinant human Factor VIIa. In words: FVIIa Binding ELISA, competition with 20 nM TF147b on immobilized FVIIa.
Settings: not given
The procedure:
FVIIa Binding ELISA—The ability of peptides to compete with biotinylated versions of TF76 (e.g. TF147b, or other peptides described herein that could be biotinylated as described) for binding to FVIIa was monitored using a FVIIa Binding ELISA or a TF-FVIIa Binding ELISA. Microtiter plates were coated overnight with 2 μg/ml recombinant human FVIIa or 2 μg/ml TF₁₋₂₄₃ (Paborsky, L. R. et al. (1991) J. Biol. Chem. 266: 21911) in 50 mM ammonium bicarbonate pH 9 at 4° C.; all other steps were performed at room temperature. Plates were then blocked with 1% BSA in Assay Buffer (50 mM HEPES, pH 7.2, 5 mM CaCl₂, 150 mM NaCl). […] The microtiter plate was washed 3 times with Assay Buffer plus 0.05% Tween 20 and the biotinylated-peptide bound was detected with a Streptavidin/HRP conjugate (Streptavidin-POD, Roche Molecular Biochemicals). The amount of HRP bound was measured using ABTS/H₂O₂ substrate (Kirkegaard and Perry Laboratories) and monitoring the absorbance at 405 nm. The absorbance at 405 nm was plotted versus the concentration of peptide originally added to the well. Sigmoidal curves were fit to a four parameter equation by nonlinear regression analysis (Marquardt, J. Soc. Indust. Appl. Math. 11:431-441 (1963); the concentration of each peptide required to give a half-maximal signal in the assay was calculated from the curves and is referred to as the IC₅₀ value. […]
(ELISA stands for enzyme-linked immunosorbent assay.)
In general, IC50 refers to the point on the concentration scale where inhibition reaches its midpoint. Turning to B1, the IC50 worked out at 2 nM.

Another experiment deals with T2, recombinant human Factor VIIa (human), …. The experiment in a line: competition ELISA. To be noted: modification not given.
Regarding B2, the IC50 worked out at 2300 nM.
As for B3, the IC50 was 147 nM.
B4: the IC50 turned out to be 485 nM.
With B5, the IC50 was greater than 100000 nM.
Turning to B6, the IC50 was found to be 90300 nM.
On to B7, for which the IC50 stood at 330 nM.
On to B8, for which the 50% inhibitory concentration (IC50) worked out at 359 nM.
As for B9, the IC50 stood at 168 nM.
In the case of B10, the IC50 worked out at 10500 nM.
Still for that read-out and setting: the figure for B11 is 20300 nM; for B12 it is 2 nM; for B13 it is 396 nM.
Consider B14, for which the IC50 is greater than 50000 nM.
Consider B15, for which the half-inhibitory concentration (IC50) was found to be 248 nM.
On to B16, for which the IC50 stood at 20000 nM.
On to B17, for which the concentration for half-maximal inhibition (IC50) amounted to 298 nM.
B18: the IC50 is 100000 nM.
For the molecule B19, the IC50 is 4960 nM.
On to B20, for which the IC50 amounted to 32 nM.
As for B21, the IC50 turned out to be 141 nM.
With B22, the IC50 stood at 10 nM.
Still for that read-out and setting: as for B23, the figure is 988 nM; as for B24, 110 nM.
Turning to B25, the IC50 is 257 nM.
As for B26, the IC50 was greater than 50000 nM.
As for B27, the IC50 amounted to 123 nM.
In the case of B28, the IC50 was 6 nM.
Consider B29, for which the IC50 worked out at 716 nM.
As for B30, the IC50 worked out at 3 nM.
Still for that read-out and setting: the figure for B31 is 698 nM; for B32 it is 75000 nM; for B33 it is 93 nM.
The same measure, in the same setting: as for B34, the figure is 109 nM; as for B35, 5 nM.
Consider B36, for which the 50% inhibitory concentration (IC50) came out at 438 nM.
Regarding B37, the half-inhibitory concentration (IC50) came to 104 nM.
The same measure, in the same setting: as for B38, the figure is 28 nM; as for B39, 100000 nM.
As to B40, the 50% inhibitory concentration (IC50) was 85 nM.
On to B41, for which the IC50 was 250000 nM.
The same measure, in the same setting: the figure for B42 is greater than 100000 nM.
Turning to B43, the 50% inhibitory concentration (IC50) came out at 8620 nM.
Same read-out and setting: the figure for B44 is 9780 nM.
Consider B45, for which the half-inhibitory concentration (IC50) was found to be 20 nM.
Still for that read-out and setting: as for B46, the figure is 1200 nM.
As to B47, the half-inhibitory concentration (IC50) stood at 24000 nM.
Still for that read-out and setting: as for B48, the figure is 42000 nM; as for B49, 2560 nM.

The values above are taken from patent publication US20030119727A1 (Genentech, published 2003).
